Among the data in patent US20030143696A1 are memory CD4+ T cell accumulation on immobilized VCAM-1 under flow; inhibition by pretreatment with CKβ-13 values, retold here.

This assay concerns the target Soluble human VCAM-1 IgG fusion protein (immobilized on coverslips) (human) (UniProt P19320). The assay can be described thus: cell-based or functional assay.
UniProt P19320, sequence (P19320 25-698 limits assumed): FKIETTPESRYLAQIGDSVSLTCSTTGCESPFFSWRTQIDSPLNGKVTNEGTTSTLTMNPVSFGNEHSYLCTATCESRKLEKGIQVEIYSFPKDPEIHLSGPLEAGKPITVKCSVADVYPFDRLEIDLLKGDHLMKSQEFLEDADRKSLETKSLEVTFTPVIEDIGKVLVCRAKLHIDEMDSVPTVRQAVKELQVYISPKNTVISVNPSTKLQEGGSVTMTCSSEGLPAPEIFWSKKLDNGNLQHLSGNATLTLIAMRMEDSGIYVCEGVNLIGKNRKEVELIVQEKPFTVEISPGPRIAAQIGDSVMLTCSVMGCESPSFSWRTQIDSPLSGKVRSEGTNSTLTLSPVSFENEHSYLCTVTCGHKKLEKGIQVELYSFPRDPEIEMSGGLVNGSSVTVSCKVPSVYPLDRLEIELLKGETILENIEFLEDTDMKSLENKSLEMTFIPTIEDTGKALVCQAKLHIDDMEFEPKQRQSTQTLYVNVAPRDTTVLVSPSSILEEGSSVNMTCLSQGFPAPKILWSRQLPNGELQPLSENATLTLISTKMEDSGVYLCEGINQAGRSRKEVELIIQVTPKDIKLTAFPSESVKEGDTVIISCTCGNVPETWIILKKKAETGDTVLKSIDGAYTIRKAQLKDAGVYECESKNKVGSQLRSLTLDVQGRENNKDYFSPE

For “VLA-4 integrin (on CD4+ naive and memory T cells) (from UniProt P13612 34-1032; P05556 21-798) (receptor)”, the memory CD4+ T cell accumulation on immobilized VCAM-1 under flow; inhibition by pretreatment with CKβ-13 was in the range of 42 to 72%.
